The values below come from US7423021B2, “Peptidic thrombin inhibitors” (NSCI Novel Science International GmbH, priority 2003, dated 2008).

In general, Ki refers to a measure of affinity in units of concentration, obtained from inhibition or displacement.

Numbered stars: 1 amine (or outer) side, 2 acyl side, 3 side chain; on linkers, the order of the positions; unused ones are H or OH. Square brackets hold non-standard residues; d marks the D form. Peptide text beside a SMILES is read from it. * marks the point of attachment. Ppd = 4-phenylpiperidine-4-carboxylic acid, O=C(C1(c2ccccc2)CCN([*:1])CC1)[*:2]; X1 = N=C(N)NC[C@H]1CC[C@H](C(=O)*)CC1; hArg = N=C(N)NCCCC[C@H](N)C(=O)O; Cha = N[C@@H](CC1CCCCC1)C(=O)O; dCha = N[C@H](CC1CCCCC1)C(=O)O; Dcp = dichlorophenylalanine; Nle = CCCC[C@H](N)C(=O)O; Aze = O=C(O)[C@@H]1CCN1; Tea = thienylalanine

The target of one experiment is thrombin.
Experiment: not given
Particulars: literature values; cited from earlier work.
On to H-D-Phe-Pro-Arg-H, for which the Ki was 70 nM.

The target of another experiment is thrombin (Homo sapiens, UniProt P00734). The experiment is described as follows: in-vitro inhibition of the amidase activity of thrombin (fluorogenic substrate Tos-Gly-Pro-Arg-AMC). It counts as biochemical. On the set-up: 10 μl of human thrombin solution.
Conditions: not given
As for the experimental part: The values of the inhibiting constants Ki were obtained from assays in which thrombin hydrolyzes the fluorogenic substrate Tos-Gly-Pro-Arg-(7-amino-4-methylcumarin). The assays were carried out in […] of assay buffer (0.05 M tris, 0.1 M NaCl, 0.1% PEG 8000, pH 7.6) with 10 μl of human thrombin solution (10^−5 U/μl in the assay buffer) and 140 μl of a solution of the fluorogenic substrate in an assay buffer at a concentration of 30 μM. Solutions of the test compound (10 μl) were added at various concentrations. The rates of the hydrolysis of the substrate were measured by monitoring the reactions at […] of the release of 7-amino-4-methylcumarin using AMC. The reaction reached an equilibrium state within three minutes, after thrombin, the substrate, and an inhibitor were mixed. The kinetic data of the competing inhibition (Km, Vmax, and Ki) were analyzed by means of the representation according to Hanes (A/V against A at various values of A, where A is the substrate concentration and V the reaction rate).
On to `N=C(N)NCCCC[C@H](NC(=O)[C@@H](Cc1ccc(O)cc1)NC(=O)[C@@H]1CCN1C(=O)[C@@H](CC1CCCCC1)NC(=O)[C@H]1CC[C@H](CNC(=N)N)CC1)C(N)=O` [Example 31, Trans-4-(guanidinomethyl)cyclohexanecarboxylic acid-D-Cha-L-Aze-D-Try-L-Har amide] (X1-[dCha][Aze][dY][hArg]-NH2), for which affinity was put at a Ki of 3 nM.

Staying with this experiment, now noted: peptide concentration of 250 nM.
Consider “N-acetyl-L-Nle-D-Cha-L-Aze-D-Tyr-L-Har amide (Ac-[Nle][dCha][Aze][dY][hArg]-NH2; SMILES CCCC[C@H](NC(C)=O)C(=O)N[C@H](CC1CCCCC1)C(=O)N1CC[C@H]1C(=O)N[C@H](Cc1ccc(O)cc1)C(=O)N[C@@H](CCCCNC(=N)N)C(N)=O) [Example 27]”, for which the “inhibition of the amidase activity of the thrombin” value (shortened to “inhibition”) stood at 89%. For “N-acetyl-L-Dcp-D-Cha-L-Aze-D-Tyr-L-Har amide (Ac-[Dcp][dCha][Aze][dY][hArg]-NH2) [Example 21]”, the “inhibition” value is reported as 75%. On the same count and under the same terms, the value for “N-acetyl-L-Ppd-D-Cha-L-Aze-D-Tyr-L-Har amide (Ac-[Ppd][dCha][Aze][dY][hArg]-NH2) [Example 24]” was 76%.

On to “N-acetyl-L-Tea-D-Cha-L-Aze-D-Tyr-L-Har amide (Ac-[Tea][dCha][Aze][dY][hArg]-NH2) [Example 25]”, for which the “inhibition” value is recorded as 74%. Still for that read-out and setting: the value for “N-acetyl-D-Phe-D-Cha-L-Aze-D-Tyr-L-Har amide (Ac-[dF][dCha][Aze][dY][hArg]-NH2; SMILES CC(=O)N[C@H](Cc1ccccc1)C(=O)N[C@H](CC1CCCCC1)C(=O)N1CC[C@H]1C(=O)N[C@H](Cc1ccc(O)cc1)C(=O)N[C@@H](CCCCNC(=N)N)C(N)=O) [Example 20]” was 77%; that for “N-acetyl-L-Trp-D-Cha-L-Aze-D-Tyr-L-Har amide (Ac-W[dCha][Aze][dY][hArg]-NH2; SMILES CC(=O)N[C@@H](Cc1c[nH]c2ccccc12)C(=O)N[C@H](CC1CCCCC1)C(=O)N1CC[C@H]1C(=O)N[C@H](Cc1ccc(O)cc1)C(=O)N[C@@H](CCCCNC(=N)N)C(N)=O) [Example 18]” was 76%.

Still in this experiment, the particulars now being: peptide concentration of 1 μM.
In the case of “N-acetyl-D-Lys-L-Nle-L-Cha-D-Pro-D-Tyr-L-Arg amide (Ac-[dK][Nle][Cha][dP][dY]R-NH2; SMILES CCCC[C@H](NC(=O)[C@@H](CCCCN)NC(C)=O)C(=O)N[C@@H](CC1CCCCC1)C(=O)N1CCC[C@@H]1C(=O)N[C@H](Cc1ccc(O)cc1)C(=O)N[C@@H](CCCNC(=N)N)C(N)=O) [Example 12]”, the “inhibition” value stood at 48%. Regarding “N-acetyl-D-Glu-L-Cha-D-Pro-D-Tyr-L-Arg amide (Ac-[dE][Cha][dP][dY]R-NH2; SMILES CC(=O)N[C@H](CCC(=O)O)C(=O)N[C@@H](CC1CCCCC1)C(=O)N1CCC[C@@H]1C(=O)N[C@H](Cc1ccc(O)cc1)C(=O)N[C@@H](CCCNC(=N)N)C(N)=O) [Example 2]”, the “inhibition” value turned out to be 58%. “N-acetyl-L-Ser-L-Ala-L-Cha-D-Pro-D-Tyr-L-Arg amide (Ac-SA[Cha][dP][dY]R-NH2; SMILES CC(=O)N[C@@H](CO)C(=O)N[C@@H](C)C(=O)N[C@@H](CC1CCCCC1)C(=O)N1CCC[C@@H]1C(=O)N[C@H](Cc1ccc(O)cc1)C(=O)N[C@@H](CCCNC(=N)N)C(N)=O) [Example 10]”: the “inhibition” value worked out at 47%. On the same count and under the same terms, next, “N-acetyl-D-Tyr-L-Cha-D-Pro-D-Tyr-L-Arg amide (Ac-[dY][Cha][dP][dY]R-NH2; SMILES CC(=O)N[C@H](Cc1ccc(O)cc1)C(=O)N[C@@H](CC1CCCCC1)C(=O)N1CCC[C@@H]1C(=O)N[C@H](Cc1ccc(O)cc1)C(=O)N[C@@H](CCCNC(=N)N)C(N)=O) [Example 13]”: 47%; “N-acetyl-D-Gln-D-His-L-Cha-D-Pro-D-Tyr-L-Arg amide (Ac-[dQ][dH][Cha][dP][dY]R-NH2; SMILES CC(=O)N[C@H](CCC(N)=O)C(=O)N[C@H](Cc1c[nH]cn1)C(=O)N[C@@H](CC1CCCCC1)C(=O)N1CCC[C@@H]1C(=O)N[C@H](Cc1ccc(O)cc1)C(=O)N[C@@H](CCCNC(=N)N)C(N)=O) [Example 1]”: 59%. The same measure, in the same setting: the value for “N-acetyl-L-Ser-L-Ser-L-Cha-D-Pro-D-Tyr-L-Arg amide (Ac-SS[Cha][dP][dY]R-NH2; SMILES CC(=O)N[C@@H](CO)C(=O)N[C@@H](CO)C(=O)N[C@@H](CC1CCCCC1)C(=O)N1CCC[C@@H]1C(=O)N[C@H](Cc1ccc(O)cc1)C(=O)N[C@@H](CCCNC(=N)N)C(N)=O) [Example 7]” was 40%; that for “N-acetyl-D-Val-L-Cha-D-Pro-D-Tyr-L-Arg amide (Ac-[dV][Cha][dP][dY]R-NH2; SMILES CC(=O)N[C@@H](C(=O)N[C@@H](CC1CCCCC1)C(=O)N1CCC[C@@H]1C(=O)N[C@H](Cc1ccc(O)cc1)C(=O)N[C@@H](CCCNC(=N)N)C(N)=O)C(C)C) [Example 8]” was 45%; that for “N-acetyl-L-Arg-L-Cha-D-Pro-D-Tyr-L-Arg amide (Ac-R[Cha][dP][dY]R-NH2; SMILES CC(=O)N[C@@H](CCCNC(=N)N)C(=O)N[C@@H](CC1CCCCC1)C(=O)N1CCC[C@@H]1C(=O)N[C@H](Cc1ccc(O)cc1)C(=O)N[C@@H](CCCNC(=N)N)C(N)=O) [Example 14]” was 47%. On the same count and under the same terms, the value for “N-acetyl-L-Ala-D-Cha-L-Pro-D-Tyr-L-Har amide (Ac-A[dCha]P[dY][hArg]-NH2; SMILES CC(=O)N[C@@H](C)C(=O)N[C@H](CC1CCCCC1)C(=O)N1CCC[C@H]1C(=O)N[C@H](Cc1ccc(O)cc1)C(=O)N[C@@H](CCCCNC(=N)N)C(N)=O) [Example 17]” was 56%; that for “N-acetyl-D-Val-D-His-L-Cha-D-Pro-D-Tyr-L-Arg amide (Ac-[dV][dH][Cha][dP][dY]R-NH2; SMILES CC(=O)N[C@@H](C(=O)N[C@H](Cc1c[nH]cn1)C(=O)N[C@@H](CC1CCCCC1)C(=O)N1CCC[C@@H]1C(=O)N[C@H](Cc1ccc(O)cc1)C(=O)N[C@@H](CCCNC(=N)N)C(N)=O)C(C)C) [Example 3]” was 51%; that for “N-acetyl-L-Trp-L-Cha-D-Pro-D-Tyr-L-Arg amide (Ac-W[Cha][dP][dY]R-NH2; SMILES CC(=O)N[C@@H](Cc1c[nH]c2ccccc12)C(=O)N[C@@H](CC1CCCCC1)C(=O)N1CCC[C@@H]1C(=O)N[C@H](Cc1ccc(O)cc1)C(=O)N[C@@H](CCCNC(=N)N)C(N)=O) [Example 9]” was 63%. With “N-acetyl-L-Ala-D-Cha-L-Aze-D-Tyr-L-Arg amide (Ac-A[dCha][Aze][dY]R-NH2; SMILES CC(=O)N[C@@H](C)C(=O)N[C@H](CC1CCCCC1)C(=O)N1CC[C@H]1C(=O)N[C@H](Cc1ccc(O)cc1)C(=O)N[C@@H](CCCNC(=N)N)C(N)=O) [Example 16]”, the “inhibition” value is reported as 63%.
